Assay results as given in patent US11905559B2, “Materials and methods for controlling gene expression” (priority 2016, dated 2024).

What was measured:
[1] = in-line probing assay; read-out: KD for guanine; cited from earlier work
lac Z expression = assay: β-galactosidase reporter assay (xpt-lacZ fusion); type: cell-based, B. subtilis; details: for lac Z expression / transcriptional control (in words): presence and absence of guanine, B. subtilis
Experimental: Kissing-loop mutants were analyzed to determine whether they can exert riboswitch activities by controlling transcription termination, given that the guanine binding was retained in all of them. To test this, a β-galactosidase reporter assay was performed in B.subtilis. […] The gene expression is repressed in wild-type due to the transcription termination in the presence of guanine. […] The fast kissing dynamics between the L2-L3 probably have a stabilizing effect on P1, and therefore an increase in the transcription termination is observed. […] This underscores that the L2-L3 dynamics are directly involved in the P1-helix formation, which affects the terminator hairpin downstream that ultimately results in an alteration of the riboswitch activities.
To assess if the aptamer mutants can exert a transcriptional control similar to the previously reported wild-type xpt-pbuX riboswitch, a xpt-lacZ fusion was constructed as described by Mandal et al., “Riboswitches control fundamental biochemical pathways in Bacillus subtilis and other bacteria”. Cell 113, 577-586 (2003). Briefly, nts −121 to +197 relative to the transcriptional start site of the xpt-pbuX operon from B. subtilis 1A1 (BGSC, Columbus, Ohio) was PCR amplified and cloned upstream of the lacZ reporter gene into pDG1661 vector. After confirming the cloned sequence, plasmid variants were integrated into the amyE locus of the 1A1 strain. Transformants were selected for double markers, specifically for chloramphenicol (5 μg/ml) resistance and sensitivity to spectinomycin (100 μg/ml). Selected B. subtilis colonies were subsequently grown in minimal media (25 g/L K2HPO4·3H2O, 6 g/L KH2PO4, 1 g/L sodium citrate, 0.2 g/l MgSO4·7H2O, 2 g/L Na2SO4, 50 μM FeCl3, 2 μM MnCl2, 50 μg/ml L-Tryptophan, 50 μg/ml L-Lysine, 50 μg/ml L-Methionine, 0.4 g/100 ml glucose, and 0.2 g/100 ml glutamate) at 37° C. with vigorous shaking. Purines were added at a final concentration of 0.1 mg/ml. Cells were harvested at mid-logarithmic growth phase (A600˜0.1-0.4), and resuspended in the above buffer for the reporter assay. The color development was recorded by measuring absorbance, A420 at the end of the reaction with appropriate controls. Data is represented in Miller Units calculated from the following relation:
[formula] where Δt is the total duration taken in the substrate cleavage by […], measured as absorbance, A420. The Miller Units shown in FIG. 4A represents mean±standard deviation from 3 independent experiments, wherein each independent experiment was performed in duplicate.

[2] = Constant-force optical tweezers folding assay of the wild-type aptamer in 2,6-diaminopurine (DAP); type: physicochemical; details: 3 mM Mg^2+; for Folding rate kf / Transition distance ΔX / Unfolding rate ku / ΔG (0): 250 uM DAP; for ΔG (0): zero force
From the text: Guanine binds to the aptamer via nucleobases U^22, U^47, U^51 and C^74 in the junction J1/2, J2/3 and J3/1. The hydrogen bonding between C^74 with the functional group in the 6th position of the purine is deterministic for ligand recognition. The purine analog 2,6-diaminopurine (DAP) differs from guanine in having an amino group in the 6th position (FIG. 13), and thus disrupts the hydrogen bonding pattern. […] In order to investigate if the loop-loop dynamics in the guanine-riboswitch are affected with a change in the ligand, mechanical assays in the presence of DAP were performed. […] Furthermore, a near similar L2-L3 kinetics highlighted that the tertiary and the secondary interactions remained unaffected by replacing guanine with DAP (Table 1).
In a constant-force (CF) experiment, the RNA is held at a preset force through feedback control. The preset force typically fluctuated around the mean with a standard deviation ±0.15 pN. In this mode, data is recorded from 4-40 kHz to capture the fast intermediates. The plots are shown as extension vs. time (as in FIG. 6A). In force-jump (FJ) assay, the force is suddenly jumped from one force to another, and then held constant thereafter, as shown in FIGS. 23A-B.
All FR, CF and FJ experiments were carried out at an ambient temperature, 25±0.5° C. The buffer in the microfluidics contained 10 mM Tris-HCl, pH 7.5 at 25° C., 250 mM NaCl, 3 mM MgCl2, and purine concentrations as indicated in wild-type aptamer. Unless stated otherwise, Mg^2+ concentration in the buffer was maintained at 3 mM in all experiments. The buffer in mutant m1 contained 5 mm Mg^2+ and 1 μM G, and in m3 contained 5 mM Mg^2+ and 200 nM Guanine. For the remaining m2, m4, m5 and m6 mutants, the buffer in single-molecule experiments was supplemented only with 3 mM Mg^2+ and 200 nM Guanine.

[3] = transition BA (P1 folding), F 8.5 pN
[4] = transition C′B (L2-L3 folding), F 8.5 pN
[5] = transition DC (P3 folding), F 12.0 pN
[6] = transition ED (P2 folding), F 13.5 pN

B1: wt: 69-nucleotide full-length wild-type guanine sensing aptamer RNA sequence from xpt-pbuX operon in B. subtilis (SEQ ID NO: 1) (nucleic acid)
chain: CACUCAUAUAAUCGCGUGGAUAUGGCACGCAAGUUUCUACCGGGCACCGUAAAUGUCCGACUAUGGGUG
modifications: RNA, backbone and methylation of C not given here
[1]
  Kd: ~5 nM
Lac Z expression
  lac Z expression / transcriptional control (in words): repressed
[2]; transition BA (P1 folding), 250 uM DAP (rates at 8.5 pN)
  Equilibrium force F^eq: 9.8 ± 0.1 pN
[2]; [3]
  Folding rate kf: 0.29 ± 0.02 s⁻¹
  Transition distance ΔX: 9.7 ± 0.2 nm
  Unfolding rate ku: 0.023 ± 0.004 s⁻¹
[2]; transition BA (P1 folding), from data at 8.5 pN
  ΔG (0): −16.6 ± 0.5 kBT
[2]; transition C′B (L2-L3 folding), 250 uM DAP (rates at 8.5 pN)
  Equilibrium force F^eq: 8.7 ± 0.2 pN
[2]; [4]
  Folding rate kf: 0.96 ± 0.08 s⁻¹
  Transition distance ΔX: 3.6 ± 0.2 nm
  Unfolding rate ku: 0.8 ± 0.06 s⁻¹
[2]; transition C′B (L2-L3 folding), from data at 8.5 pN
  ΔG (0): −7.6 ± 0.4 kBT
[2]; transition DC (P3 folding), 250 uM DAP (rates at 12.0 pN)
  Equilibrium force F^eq: 12.3 ± 0.02 pN
[2]; [5]
  Folding rate kf: 22.0 ± 0.6 s⁻¹
  Transition distance ΔX: 7.5 ± 0.3 nm
  Unfolding rate ku: 14.3 ± 0.4 s⁻¹
[2]; transition DC (P3 folding), from data at 12.0 pN
  ΔG (0): −15.5 ± 0.9 kBT
[2]; transition ED (P2 folding), 250 uM DAP (rates at 13.5 pN)
  Equilibrium force F^eq: 13.6 ± 0.02 pN
[2]; [6]
  Folding rate kf: 14.7 ± 0.4 s⁻¹
  Transition distance ΔX: 7.0 ± 0.2 nm
  Unfolding rate ku: 13.4 ± 0.4 s⁻¹
[2]; transition ED (P2 folding), from data at 13.5 pN
  ΔG (0): −16.3 ± 0.7 kBT

B2: m1: m1 mutant guanine sensing aptamer RNA (SEQ ID NO: 2); G37 replaced with adenine in the L2 loop (nucleic acid)
chain: CACUCAUAUAAUCGCGUGGAUAUAGCACGCAAGUUUCUACCGGGCACCGUAAAUGUCCGACUAUGGGUG
modifications: RNA, backbone and methylation of C not given here
notes: G37 replaced with adenine in the L2 loop
Lac Z expression
  lac Z expression / transcriptional control (in words): completely de-repressed

B3: m4: m4 mutant guanine sensing aptamer RNA (SEQ ID NO: 5); A59G/U67C in the P3 hairpin (nucleic acid)
chain: CACUCAUAUAAUCGCGUGGAUAUGGCACGCAAGUUUCUACCGGGCGCCGUAAACGUCCGACUAUGGGUG
modifications: RNA, backbone and methylation of C not given here
notes: A59G/U67C in the P3 hairpin
Lac Z expression; in the presence of guanine
  Expression higher than the wild-type: ~7 fold
Lac Z expression
  lac Z expression / transcriptional control (in words): moderately repressed

B4: m6: m6 mutant guanine sensing aptamer RNA (SEQ ID NO: 7); U67A, shorter P3 hairpin and larger L3 loop (nucleic acid)
chain: CACUCAUAUAAUCGCGUGGAUAUGGCACGCAAGUUUCUACCGGGCACCGUAAAAGUCCGACUAUGGGUG
modifications: RNA, backbone and methylation of C not given here
notes: U67A, shorter P3 hairpin and larger L3 loop
Lac Z expression; in the presence of guanine
  Repression exceeding the wild-type repression: ~3 fold
Lac Z expression
  lac Z expression / transcriptional control (in words): highly repressed

B5: m7: m7 mutant guanine sensing aptamer RNA (SEQ ID NO: 8); U25C in J1/2 (nucleic acid)
chain: CACUCAUAUAACCGCGUGGAUAUGGCACGCAAGUUUCUACCGGGCACCGUAAAUGUCCGACUAUGGGUG
modifications: RNA, backbone and methylation of C not given here
Lac Z expression; in the presence of guanine
  Expression higher than the wild-type: ~2.5 fold
